Some results are limits rather than exact numbers.

The source of these data is patent US20090053241A1 (Eli Lilly, published 2009).

For test [1], the target named is T1, mPDGFRβ/Fc (mouse, UniProt P05622 32-530, limits assumed).
T1 construct: The methods say 'mPDGFRβ' for ELISA plates and the BIAcore chip; also called murine PDGFRβ; mouse PDGFRβ; not shown: Fc part; detected with a goat anti-human Fc antibody
T1 sequence (looked up): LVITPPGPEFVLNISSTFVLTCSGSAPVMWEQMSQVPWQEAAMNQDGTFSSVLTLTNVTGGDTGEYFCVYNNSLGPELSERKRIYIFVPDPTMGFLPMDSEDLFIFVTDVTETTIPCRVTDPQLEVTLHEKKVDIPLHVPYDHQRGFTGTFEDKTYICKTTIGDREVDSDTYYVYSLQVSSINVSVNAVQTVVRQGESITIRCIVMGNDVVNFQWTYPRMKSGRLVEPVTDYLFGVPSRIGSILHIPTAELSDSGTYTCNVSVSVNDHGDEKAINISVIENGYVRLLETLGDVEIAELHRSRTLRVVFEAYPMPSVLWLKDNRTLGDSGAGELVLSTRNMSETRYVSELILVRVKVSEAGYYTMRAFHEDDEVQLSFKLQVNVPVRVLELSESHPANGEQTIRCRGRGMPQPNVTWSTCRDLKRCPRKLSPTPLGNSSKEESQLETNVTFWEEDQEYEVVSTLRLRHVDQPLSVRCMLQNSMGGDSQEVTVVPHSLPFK
Nature of the test: SPR (BIAcore), mPDGFRβ immobilized. The procedure:
Antibody affinity determination. […] Sensorgrams were obtained at each concentration and were evaluated using the program, BIA Evaluation 2.0. The affinity constant, Kd, was calculated from the ratio of dissociation rate (koff)/association rate (kₒₙ) (Lu, D. et al., 2002; Zhu, Z. et al., 1998; Loizos, N. et al., 2005).
In general terms: In SPR one partner is held on a chip, and binding of the other changes the refractive index at the surface.

Test [2] concerns the target T2, human PDGFRβ (soluble recombinant protein) (human, UniProt P09619 33-530, limits assumed).
T2 construct: the construct is not described; also called hPDGFRβ
Nature of the test: ELISA, panel 'BINDING TO hPDGFRβ'.

Test [3] concerns the target T1, mPDGFRβ/Fc. Nature of the test: ELISA, panel 'BINDING TO mPDGFRβ'.
In test [4] the target is T1, mPDGFRβ/Fc. Nature of the test: direct binding ELISA on mPDGFRβ/Fc-coated plates (printed as IC50; FIG. 1A). The procedure: (§1) Plate-bound antibodies were detected with a goat anti-human-κ antibody-HRP. […] IMC-1121 is an antibody directed against human VEGFR2. Data represent the mean±SD of triplicate samples.
(§2) Quantitative receptor binding and blocking assays. […] The plates were then incubated at RT for an additional 1 h with a goat anti-human-κ antibody-horse radish peroxidase (HRP) conjugate (Jackson ImmunoResearch, West Grove, Pa.). The plates were washed and developed as previously described (Lu, D. et al., 2002; Zhu, Z. et al., 1998). […] After washing 3 times with PBST, the plates were incubated with a goat anti-human Fc antibody-HRP conjugate (Jackson ImmunoResearch) for 1 h, and developed as described (Lu, D. et al., 2002; Zhu, Z. et al., 1998; Loizos, N. et al., 2005).

For test [5], the target named is T1, mPDGFRβ/Fc. Nature of the test: blocking ELISA: antibody mixed with mPDGFRβ/Fc, PDGF-BB-coated plates (FIG. 1B). The procedure:
as §1, §2
(In general: In an ELISA, binding on a coated surface is turned into a signal by an enzyme label.)

Test [6] addresses T1, mPDGFRβ/Fc. Nature of the test: blocking ELISA, panel 'BLOCKING PDGF-BB BINDING TO mPDGFRβ'; blocked ligand PDGF-BB.
Test [7] has as its target T1, mPDGFRβ/Fc. Nature of the test: blocking ELISA: Fab mixed with mPDGFRβ/Fc, PDGF-BB-coated plates (FIG. 1B). As to the method:
as §1, §2

In test [8] the target is T1, mPDGFRβ/Fc. Nature of the test: ELISA on mPDGFRβ/Fc-coated plate (1 µg/ml), detection with goat anti-human-κ antibody-HRP. The procedure:
as §1, §2

Test [9] addresses mouse PDGFRβ on cells (NIH/3T3, D122, 4T1, B16) (mouse, UniProt P05622 32-1098). Nature of the test: cell-based or functional assay.
In test [10] the target is human PDGFRβ, cell-surface-expressed receptor on human tumor cell lines (human, UniProt P09619 33-1106). Nature of the test: cell-based or functional assay.
Test [11] concerns the target T2, human PDGFRβ (soluble recombinant …). Nature of the test: blocking of PDGF-BB binding to hPDGFRβ (FIG. 6).
For test [12], the target named is T1, mPDGFRβ/Fc. Nature of the test: blocking of PDGF-BB binding to mPDGFRβ (FIG. 6).
For test [13], the target named is T3, h5β (human, UniProt P09619 33-530, limits assumed).
T3 construct: domain: domains 1-5 (read from the label); read as human PDGFRβ with all five domains
Nature of the test: ELISA (OD450), panel '2C5 BINDING TO PDGFRβ/α CHIMERAS'; axis 'CO…ON (nM)', titrated species not stated.

Test [14] has as its target T3, h5β. Nature of the test: ELISA (OD450), panel '2C5 BINDING TO hPDGFRβ DELETIONS'; axis 'CO…ON (nM)', titrated species not stated.
The target of test [15] is T4, β1-2 (shorter version of PDGFRβ, D1D2).
T4 construct: domain: D1D2
The description is as above.

Test [16] concerns the target T5, β1-3 (shorter version of PDGFRβ, D1D2D3).
T5 construct: domain: D1D2D3
Described as above.

T2 sequence (P09619 33-530 limits assumed): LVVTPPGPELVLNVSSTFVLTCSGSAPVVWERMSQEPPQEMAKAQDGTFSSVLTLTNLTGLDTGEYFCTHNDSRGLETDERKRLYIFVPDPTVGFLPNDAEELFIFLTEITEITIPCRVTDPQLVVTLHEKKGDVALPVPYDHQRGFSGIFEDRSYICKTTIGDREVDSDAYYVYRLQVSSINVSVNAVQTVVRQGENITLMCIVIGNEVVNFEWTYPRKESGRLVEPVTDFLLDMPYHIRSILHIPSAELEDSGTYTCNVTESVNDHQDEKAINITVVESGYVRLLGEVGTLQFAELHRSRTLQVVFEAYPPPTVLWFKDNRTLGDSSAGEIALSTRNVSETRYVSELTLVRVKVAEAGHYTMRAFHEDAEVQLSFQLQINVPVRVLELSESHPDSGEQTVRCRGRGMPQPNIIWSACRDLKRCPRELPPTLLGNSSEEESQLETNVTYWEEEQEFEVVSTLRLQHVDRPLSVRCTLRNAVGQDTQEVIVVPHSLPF
T3 sequence (P09619 33-530 limits assumed): as above
human PDGFRβ, cell-surface-expressed receptor on human tumor cell lines, sequence (P09619 33-1106): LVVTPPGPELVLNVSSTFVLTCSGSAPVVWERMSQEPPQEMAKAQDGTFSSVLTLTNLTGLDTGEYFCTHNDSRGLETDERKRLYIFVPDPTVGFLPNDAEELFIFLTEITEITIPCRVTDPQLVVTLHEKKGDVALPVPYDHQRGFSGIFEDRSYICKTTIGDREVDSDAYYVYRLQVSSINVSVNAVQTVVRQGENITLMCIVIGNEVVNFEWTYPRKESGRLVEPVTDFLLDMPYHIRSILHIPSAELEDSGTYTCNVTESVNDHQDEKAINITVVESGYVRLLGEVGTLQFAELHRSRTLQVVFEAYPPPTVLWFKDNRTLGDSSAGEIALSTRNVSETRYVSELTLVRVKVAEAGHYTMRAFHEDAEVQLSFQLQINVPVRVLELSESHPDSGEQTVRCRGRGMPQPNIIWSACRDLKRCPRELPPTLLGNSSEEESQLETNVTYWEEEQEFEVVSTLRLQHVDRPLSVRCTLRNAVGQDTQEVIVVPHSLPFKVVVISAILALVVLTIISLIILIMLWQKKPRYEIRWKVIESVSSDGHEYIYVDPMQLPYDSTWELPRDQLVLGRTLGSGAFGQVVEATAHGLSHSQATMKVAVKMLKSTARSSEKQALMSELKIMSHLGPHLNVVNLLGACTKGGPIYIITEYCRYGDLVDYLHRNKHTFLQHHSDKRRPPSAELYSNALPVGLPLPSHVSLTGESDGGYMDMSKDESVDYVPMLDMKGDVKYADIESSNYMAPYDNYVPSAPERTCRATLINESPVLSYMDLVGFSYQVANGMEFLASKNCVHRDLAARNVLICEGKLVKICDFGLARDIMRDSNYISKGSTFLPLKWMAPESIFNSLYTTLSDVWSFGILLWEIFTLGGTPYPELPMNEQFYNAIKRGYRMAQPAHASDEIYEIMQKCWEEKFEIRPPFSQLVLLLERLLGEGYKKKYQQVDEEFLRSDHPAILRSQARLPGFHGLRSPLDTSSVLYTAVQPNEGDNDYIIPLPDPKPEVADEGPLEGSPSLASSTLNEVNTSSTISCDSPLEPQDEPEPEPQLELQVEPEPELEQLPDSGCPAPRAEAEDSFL

B1: 1B3 IgG (full-length human anti-mouse PDGFRβ antibody) (antibody, V domains shown)
VH: QVQLQESGGGLVKPGGSLRLSCAASGFTFSSYSMNWVRQAPGKGLEWVSSISSSSSYIYYADSVKGRFTISRDNSKNTLYLQMNSLRAEDTAVYYCAKGGRPLLVFDFWGQGTLVTVS
VL: EIVMTQSPGTLSLSPGERATLSCRASQSVSSSYLAWYQQKPGQAPRLLIYDASKRATGIPARFSGSGSGTDFTLTISTLESEDSAVYYCQQRGYWPPITFGQGTRLEIKR
notes: also called 1B3 antibody; anti-mPDGFRβ antibody 1B3
As usually defined, the Kd is the equilibrium constant for the complex coming apart. As usually defined, the EC50 (read off the curve) is the concentration needed to bring the measured effect to its halfway point. Broadly, the EC50 is the concentration giving half of the maximal effect. The IC50 is the concentration that gives 50% inhibition. On to B1, for which, in the test with mPDGFRβ/Fc [1], the Kd turned out to be 0.09 nM and the “fold increase in affinity over its Fab form” value was ~57 times. Also, the binding result in test [2] is recorded as “no binding (tested: about 1e-8 M)”. In addition, in the test with mPDGFRβ/Fc [3], the “EC50 (read off the curve)” value is ~0.07 nM. Further, a half-maximal response in the test with mPDGFRβ/Fc [4] (EC50) required 0.34 nM. The molecule further yielded an IC50 in the test with mPDGFRβ/Fc [5] of 1.2 nM. In the test with mPDGFRβ/Fc [6], this molecule came in with an IC50 of 0.37 nM.

B2: 1B3 Fab (Fab, V domains shown)
VH: B1 VH
VL: B1 VL
notes: also called 1B3 Fab fragment; clone 1B3
Turning to B2, binding with mPDGFRβ/Fc [1] was characterised by a dissociation constant (Kd) of 5.1 nM. In the test with mPDGFRβ/Fc [7], half-maximal inhibition (IC50) was put at 4.1 nM. In addition, the EC50 with mPDGFRβ/Fc [4] amounted to 1.3 nM.

B3: 1121 IgG (antibody, V domains shown)
VH: EVQLVQSGGGLVKPGGSLRLSCAASGFTFSSYSMNWVRQAPGKGLEWVSSISSSSSYIYYADSVKGRFTISRDNAKNSLYLQMNSLRAEDTAVYYCARVTDAFDIWGQGTMVTVSS
VL: DIQMTQSPSSVSASIGDRVTITCRASQGIDNWLGWYQQKPGKAPKLLIYDASNLDTGVPSRFSGSGSGTYFTLTISSLQAEDFAVYFCQQAKAFPPTFGGGTKVDIK
notes: The sheet prints '1121 IgG'; also called IMC-1121; antibody directed against human VEGFR2
B3: in the test with mPDGFRβ/Fc [8], the binding result is “no binding (tested: 10 nM)”.

B4: 2C5 (human anti-PDGFRβ antibody) (antibody, V domains shown)
VH: QVQLVQSGAEVKKPGSSVKVSCKASGGTFSSYAISWVRQAPGQGLEWMGRIIPILGIANYAQKFQGRVTITADKSTSTAYMELSSLRSEDTAVYYCARDMGSRNYYYFYWGQGTLVTVSS
VL: EIVLTQSPATLSLSPGERATLSCRASQSVGRYLAWYQQKPGQAPRLLIYGASNRATGIPARFSGSGSGTDFTLTISSLEPEDFAVYYCQQRSNWPLTFGGGTKVEIKR
notes: also called 2C5 antibody; anti-PDGFRβ antibody 2C5
Turning to B4, the “PDGFRβ phosphorylation in mouse NIH/3T3 and D122 cell lines, IC50” value in test [9] was < 1.8 µg/mL. For the same molecule, the “PDGFRβ phosphorylation in human Caki-1 tumor cells, IC50” value in test [10] was < 1.8 µg/mL. The “EC50 (read off the curve)” value was ~0.1 nM in test [2]; ~0.1 nM with mPDGFRβ/Fc [3]; ~0.05 nM with h5β [13]; ~0.06 nM with h5β [14]; ~0.1 nM in [15]; ~0.07 nM in test [16]. Moreover, the results for the IC50 (in test [11]; with mPDGFRβ/Fc [12]) were 0.55 nM and 0.35 nM, respectively.
